We go through one molecule from patent US20070298448A1 (PROTEOSYS, published 2007).

Primed or numbered codes have the meaning given here. Ends that are not written are not given here. Bz′ = not defined here; OBz = not defined here

Test [1] deals with T1, [Cys(Bz)^84, Glu(OBz)^85]-CD4(81-92) (UniProt P01730 106-117, reading uncertain).
T1 construct: range 81-92; Synthetic derivatized peptide
T1 peptide: TYIC(Bz′)E(OBz)VEDQKEE
Description: mutant immobilized on Ni-NTA-agarose beads, peptide incubated, washed, eluted with 200 mM acetic acid, MALDI-TOF.

Test [2] addresses T2, human angiotensin II (human, UniProt P01019 25-32).
T2 construct: also called calibration peptide; control peptide
Description: peptide incubated with mutant on Ni-NTA-agarose beads, washed, acid eluate read by MALDI-TOF.

Test [3] deals with T3, human angiotensin I (human, UniProt P01019 25-34).
T3 construct: also called calibration peptide; control peptide
The description is as above.

B1: 6xHis-Ser237Ala-V8Δ48 mutant (enzyme)
chain: MRGSHHHHHHGSVILPNNDRHQITDTTNGHYAPVTYIQVEAPTGTFIASGVVVGKDTLLTNKHVVDATHGDPHALKAFPSAINQDNYPNGGFTAEQITKYSGEGDLAIVKFSPNEQNKHIGEVVKPATMSNNAETQVNQNITVTGYPGDKPVATMWESKGKITYLKGEAMQYDLSTTGGNAGSPVFNEKNEVIGIHWGGVPNEFNGAVFINENVRNFLKQNIEDIHFANDDQKLN
notes: also called Ser237Ala-V8Δ48 protease; anhydro mutant of the V8 proteinase
As to B1, the binding result is “binds” in test [1], “no binding” in test [2] and “no binding” in test [3].
